Tested on: human anti-PLA2R autoantibodies
Assay: Western blotting of PLA2R fragments with human anti-PLA2R autoantibodies
Type: binding

B1: mouse PLA2R: recombinant mouse PLA2R (R&D) (protein)
chain: QDLTHIQEPSLEWRDKGIFIIQSESLKTCIQAGKSVLTLENCKQPNEHMLWKWVSDDHLFNVGGSGCLGLNISALEQPLKLYECDSTLISLRWHCDRKMIEGPLQYKVQVKSDNTVVARKQIHRWIAYTSSGGDICEHPSRDLYTLKGNAHGMPCVFPFQFKGHWHHDCIREGQKEHLLWCATTSRYEEDEKWGFCPDPTSMKVFCDATWQRNGSSRICYQFNLLSSLSWNQAHSSCLMQGGALLSIADEDEEDFIRKHLSKVVKEVWIGLNQLDEKAGWQWSDGTPLSYLNWSQEITPGPFVEHHCGTLEVVSAAWRSRDCESTLPYICKRDLNHTAQGILEKDSWKYHATHCDPDWTPFNRKCYKLKKDRKSWLGALHSCQSNDSVLMDVASLAEVEFLVSLLRDENASETWIGLSSNKIPVSFEWSSGSSVIFTNWYPLEPRILPNRRQLCVSAEESDGRWKVKDCKERLFYICKKAGQVPADEQSGCPAGWERHGRFCYKIDTVLRSFEEASSGYYCSPALLTITSRFEQAFITSLISSVAEKDSYFWIALQDQNNTGEYTWKTVGQREPVQYTYWNTRQPSNRGGCVVVRGGSSLGRWEVKDCSDFKAMSLCKTPVKIWEKTELEERWPFHPCYMDWESATGLASCFKVFHSEKVLMKRSWREAEAFCEEFGAHLASFAHIEEENFVNELLHSKFNWTQERQFWIGFNRRNPLNAGSWAWSDGSPVVSSFLDNAYFEEDAKNCAVYKANKTLLPSNCASKHEWICRIPRDVRPKFPDWYQYDAPWLFYQNAEYLFHTHPAEWATFEFVCGWLRSDFLTIYSAQEQEFIHSKIKGLTKYGVKWWIGLEEGGARDQIQWSNGSPVIFQNWDKGREERVDSQRKRCVFISSITGLWGTENCSVPLPSICKRVKIWVIEKEKPPTQPGTCPKGWLYFNYKCFLVTIPKDPRELKTWTGAQEFCVAKGGTLVSIKSELEQAFITMNLFGQTTNVWIGLQSTNHEKWVNGKPLVYSNWSPSDIINIPSYNTTEFQKHIPLCALMSSNPNFHFTGKWYFDDCGKEGYGFVCEKMQDTLEHHVNVSDTSAIPSTLEYGNRTYKIIRGNMTWYAAGKSCRMHRAELASIPDAFHQAFLTVLLSRLGHTHWIGLSTTDNGQTFDWSDGTKSPFTYWKDEESAFLGDCAFADTNGRWHSTACESFLQGAICHVVTETKAFEHPGLCSETSVPWIKFKGNCYSFSTVLDSRSFEDAHEFCKSEGSNLLAIRDAAENSFLLEELLAFGSSVQMVWLNAQFDNNNKTLRWFDGTPTEQSNWGLRKPDMDHLKPHPCVVLRIPEGIWHFTPCEDKKGFICKMEAGIPAVTAQPEKGLSHS
For B1, the “recognition by human anti-PLA2R autoantibodies” value was “fail to react”.
